Data reported in the supplement of paper PMC10567573.

B1: NETO1 (parent)
chain: KTSLLDQLTNTSGTVIGVTSCIVI

Variants of: B1
Assay: protein stability index of a GFP-peptide fusion (GPS, HEK-293T) (PSI 1-6); higher = more stable
Settings: c terminus: a fixed tail appended
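Note: lentivirally expressed fusions sorted by FACS into six bins by GFP to DsRed ratio, PSI derived from sequencing read proportions per bin multiplied by bin number.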

Protein stability index: each site, then its substitutions
V23: K 3.04 | D 1.95 | P 1.65 | Q 2.87 | T 2.85 | C 3.17 | H 1.97 | E 2.98 | W 2.74 | L 3.18
S20: L 2.79 | P 2.98 | R 4.13 | H 2.97
T11: V 2.65 | M 3.29 | P 3.64 | Q 2.81 | I 2.52 | F 2.35 | A 3.75 | R 1.74
L8: F 2.71 | D 3.02 | N 2.56 | C 3.29 | S 3.3 | K 2.99
T2: D 3.94 | E 2.12 | K 2.64 | M 2.76 | F 3.71 | R 3.11 | L 2.58 | V 2.68 | P 3.5 | I 3.34 | C 1.93 | Y 3.38 | W 2.31
V15: M 2.87 | G 2.98 | H 1.99 | N 2.74 | T 3.07 | C 2.06 | I 3.08
S3: N 2.57 | P 2.58 | T 2.61 | K 2.88 | Q 3.04 | R 3.26
T19: R 3.08 | L 3.78 | D 1.59 | G 3 | W 2.06 | N 3.28 | Y 2.79
G13: E 3.52 | C 2.5 | D 2.26 | L 2.42 | S 3.19
D6: M 2.53 | R 3.02 | S 2.52 | Q 2.18 | H 3.23 | K 1.98 | T 3.2 | F 2.58 | L 2.92 | W 3.03
I16: A 2.44 | L 2.98 | P 2.76 | N 2.27 | D 2.52
C21: F 3.65 | E 2.83 | S 3.06 | M 2.41 | G 3.12 | N 3.1 | R 3.31 | H 2.2 | D 2.31
G17: I 3.43 | M 2.55 | C 3.42 | R 2.88 | S 3.25 | L 3.83
L4: P 2.67 | Y 2.83 | I 4.14 | E 2.94 | D 2.7 | N 2.6 | M 2.19
K1: W 3.48 | R 1.61 | M 3.4 | G 2.6
L5: M 3.86 | P 2.45 | D 2.98 | S 3.07 | C 2.32 | Q 3.37
T9: M 2.4 | F 2.37 | W 3.88 | H 2.95 | N 3.29 | K 3.98
T14: Y 2.64 | A 2.03 | N 2.98 | G 2.11 | K 3.88 | I 2.98
V18: A 3.38 | Q 2.66 | S 3.67 | D 2.55 | H 2.95 | T 2.93 | I 2.84
I24: A 1.71 | R 1.74 | N 2.08 | M 2.45 | C 1.64
Q7: F 2.62 | P 2.88 | L 3.27 | S 2.36 | K 2.87 | Y 2.47 | A 2.92 | D 3.75 | E 2.27 | R 1.64
S12: G 3.53 | Y 3.62 | I 2.89 | Q 2.56 | N 3.41 | P 2.51
I22: S 1.45 | D 2.39 | Q 2.15 | W 3.04 | G 2.36 | A 2.12
N10: G 3.19 | K 3.15 | Y 2.62 | C 2.71 | P 2.96 | H 2.78 | A 2.13 | T 2.41
